Results taken from the Human Domainome abundance scans (Beltran et al. 2025).
± gives the uncertainty stated by the source.

Assay: abundance fitness (aPCA) (normalised: wild type 0, dead -1); higher = more abundant; growth selection in yeast, the domain comes from the species named
Settings: Homo sapiens

Substance	abundance fitness
SAFB-like transcription modulator D29Y, Q9NWH9	-0.677 ± 0.089
SAFB-like transcription modulator P63F, Q9NWH9	-0.257 ± 0.045
BAG family molecular chaperone regulator 3 R19Y, O95817	-0.27 ± 0.094
SAFB-like transcription modulator T42V, Q9NWH9	-0.488 ± 0.099
SAFB-like transcription modulator L34R, Q9NWH9	-0.969 ± 0.069
BAG family molecular chaperone regulator 3 G17W, O95817	0.329 ± 0.083
BAG family molecular chaperone regulator 3 T46C, O95817	-0.312 ± 0.086
SAFB-like transcription modulator N65R, Q9NWH9	-0.094 ± 0.045
BAG family molecular chaperone regulator 3 R53P, O95817	-0.653 ± 0.083
BAG family molecular chaperone regulator 3 T46P, O95817	-0.752 ± 0.32
SAFB-like transcription modulator Q54G, Q9NWH9	-0.258 ± 0.069
BAG family molecular chaperone regulator 3 V40W, O95817	-0.468 ± 0.21
BAG family molecular chaperone regulator 3 P21V, O95817	0.443 ± 0.063
SAFB-like transcription modulator V44Q, Q9NWH9	-0.134 ± 0.078
BAG family molecular chaperone regulator 3 A13M, O95817	-0.172 ± 0.31
SAFB-like transcription modulator K35Y, Q9NWH9	-0.086 ± 0.37
SAFB-like transcription modulator K21G, Q9NWH9	-0.265 ± 0.046
BAG family molecular chaperone regulator 3 S14C, O95817	-0.542 ± 0.42
BAG family molecular chaperone regulator 3 V12W, O95817	-0.571 ± 0.32
BAG family molecular chaperone regulator 3 H42Y, O95817	-0.55 ± 0.088
BAG family molecular chaperone regulator 3 L22T, O95817	0.047 ± 0.17
SAFB-like transcription modulator P63I, Q9NWH9	-0.165 ± 0.057
SAFB-like transcription modulator E33P, Q9NWH9	-1.16 ± 0.2
BAG family molecular chaperone regulator 3 V40R, O95817	-0.637 ± 0.13
BAG family molecular chaperone regulator 3 P32K, O95817	-0.002 ± 0.068

Substance	abundance fitness
SAFB-like transcription modulator K45H, Q9NWH9	-0.372 ± 0.12
BAG family molecular chaperone regulator 3 G17L, O95817	0.282 ± 0.087
BAG family molecular chaperone regulator 3 P23G, O95817	-0.622 ± 0.18
BAG family molecular chaperone regulator 3 Q33T, O95817	-0.583 ± 0.3
SAFB-like transcription modulator K31G, Q9NWH9	-0.859 ± 0.038
BAG family molecular chaperone regulator 3 Q33K, O95817	0.035 ± 0.21
BAG family molecular chaperone regulator 3 T34R, O95817	-0.391 ± 0.12
BAG family molecular chaperone regulator 3 I28M, O95817	0.248 ± 0.14
BAG family molecular chaperone regulator 3 G17K, O95817	0.564 ± 0.093
SAFB-like transcription modulator R36S, Q9NWH9	-0.048 ± 0.42
SAFB-like transcription modulator G61A, Q9NWH9	-0.158 ± 0.049
SAFB-like transcription modulator K31R, Q9NWH9	-0.184 ± 0.047
BAG family molecular chaperone regulator 3 L22N, O95817	-0.67 ± 0.34
SAFB-like transcription modulator I56Y, Q9NWH9	-0.419 ± 0.16
SAFB-like transcription modulator N65W, Q9NWH9	-0.339 ± 0.071
SAFB-like transcription modulator E58T, Q9NWH9	-0.043 ± 0.067
BAG family molecular chaperone regulator 3 P52S, O95817	-0.303 ± 0.11
BAG family molecular chaperone regulator 3 N43T, O95817	-0.416 ± 0.085
BAG family molecular chaperone regulator 3 G15L, O95817	0.766 ± 0.074
SAFB-like transcription modulator R37Q, Q9NWH9	-0.575 ± 0.13
SAFB-like transcription modulator Q54F, Q9NWH9	-0.068 ± 0.1
SAFB-like transcription modulator R37M, Q9NWH9	-0.601 ± 0.064
SAFB-like transcription modulator L52Y, Q9NWH9	-0.651 ± 0.17
BAG family molecular chaperone regulator 3 H42W, O95817	-0.886 ± 0.14
BAG family molecular chaperone regulator 3 W49M, O95817	-0.21 ± 0.18

Substance	abundance fitness
BAG family molecular chaperone regulator 3 P52D, O95817	-0.542 ± 0.42
SAFB-like transcription modulator K45E, Q9NWH9	-0.096 ± 0.038
BAG family molecular chaperone regulator 3 G35V, O95817	-0.589 ± 0.16
SAFB-like transcription modulator T46Y, Q9NWH9	-0.097 ± 0.088
SAFB-like transcription modulator L34H, Q9NWH9	-0.465 ± 0.38
SAFB-like transcription modulator S50A, Q9NWH9	0.015 ± 0.037
SAFB-like transcription modulator K45T, Q9NWH9	-0.095 ± 0.053
SAFB-like transcription modulator K31V, Q9NWH9	-0.056 ± 0.053
BAG family molecular chaperone regulator 3 H42I, O95817	-0.625 ± 0.29
BAG family molecular chaperone regulator 3 D51Q, O95817	-0.602 ± 0.42
BAG family molecular chaperone regulator 3 S44W, O95817	-0.86 ± 0.17
SAFB-like transcription modulator L25I, Q9NWH9	-0.467 ± 0.11
SAFB-like transcription modulator V27M, Q9NWH9	0.158 ± 0.099
BAG family molecular chaperone regulator 3 T46S, O95817	-0.183 ± 0.12
BAG family molecular chaperone regulator 3 D20N, O95817	0.044 ± 0.13
SAFB-like transcription modulator K20I, Q9NWH9	0.049 ± 0.11
SAFB-like transcription modulator K53D, Q9NWH9	-0.931 ± 0.3
SAFB-like transcription modulator I56A, Q9NWH9	-0.829 ± 0.1
SAFB-like transcription modulator D24G, Q9NWH9	-0.282 ± 0.03
BAG family molecular chaperone regulator 3 D18K, O95817	0.22 ± 0.18
BAG family molecular chaperone regulator 3 D20E, O95817	-0.018 ± 0.1
SAFB-like transcription modulator D40S, Q9NWH9	-0.148 ± 0.062
BAG family molecular chaperone regulator 3 A13R, O95817	-0.316 ± 0.13
BAG family molecular chaperone regulator 3 P32L, O95817	-0.458 ± 0.12
SAFB-like transcription modulator L34G, Q9NWH9	-0.829 ± 0.043

Substance	abundance fitness
BAG family molecular chaperone regulator 3 P23A, O95817	-0.378 ± 0.16
SAFB-like transcription modulator S32T, Q9NWH9	-0.048 ± 0.068
SAFB-like transcription modulator P63N, Q9NWH9	-0.422 ± 0.045
BAG family molecular chaperone regulator 3 L22A, O95817	-0.362 ± 0.17
SAFB-like transcription modulator I49P, Q9NWH9	-0.739 ± 0.067
SAFB-like transcription modulator R26D, Q9NWH9	0.033 ± 0.15
SAFB-like transcription modulator L68V, Q9NWH9	-0.075 ± 0.063
BAG family molecular chaperone regulator 3 E57H, O95817	-0.326 ± 0.38
SAFB-like transcription modulator R26Q, Q9NWH9	-0.502 ± 0.17
SAFB-like transcription modulator D29P, Q9NWH9	-0.656 ± 0.097
SAFB-like transcription modulator L68G, Q9NWH9	-0.165 ± 0.086
SAFB-like transcription modulator N65K, Q9NWH9	-0.103 ± 0.038
SAFB-like transcription modulator R51H, Q9NWH9	-0.814 ± 0.27
BAG family molecular chaperone regulator 3 Q11K, O95817	1.01 ± 0.19
SAFB-like transcription modulator E33N, Q9NWH9	-0.755 ± 0.1
SAFB-like transcription modulator E67G, Q9NWH9	-0.198 ± 0.049
SAFB-like transcription modulator L68Y, Q9NWH9	-0.763 ± 0.31
BAG family molecular chaperone regulator 3 E27T, O95817	-0.555 ± 0.15
SAFB-like transcription modulator I22V, Q9NWH9	-0.132 ± 0.037
BAG family molecular chaperone regulator 3 D31G, O95817	-0.491 ± 0.084
SAFB-like transcription modulator T23D, Q9NWH9	-0.093 ± 0.041
SAFB-like transcription modulator L48K, Q9NWH9	-0.371 ± 0.055
